4 molecules from patent US20260070976A1 (Alector, published 2026) can be followed below.

Numbering of substitutions follows the chain as printed.

B1: X1 (antibody, V domains shown)
VH: QVQLVQSGAEVKKPGSSVKVSCKASGYNFLHYDVNWVRQAPGQGLEWMGGIIPIFGTANYAQKFQGRVTITADESTSTAYMELSSLRSEDTAVYYCATAVGAGWFDTWGQGTLVTVSS
VL: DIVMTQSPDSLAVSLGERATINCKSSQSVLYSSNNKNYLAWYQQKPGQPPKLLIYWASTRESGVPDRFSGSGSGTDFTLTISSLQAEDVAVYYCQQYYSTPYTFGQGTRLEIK
notes: conditioned media in the HEK293F assays
B2: X11 (antibody, human IgG4, V domains shown)
VH: B1 VH with H31N, A99G, T107P
VL: DIVMTQSPDSLAVSLGERATINCKSSQSVYFSENNKNYLAWYQQKPGQPPKLLIYWASTRESGVPDRFSGSGSGTDFTLTISSLQAEDVAVYYCQQYYEEPYTFGQGTRLEIK
notes: as for B1
B3: X18 (antibody, human IgG4, V domains shown)
VH: B1 VH
VL: B2 VL with Y30W, S32D, E33P, Y98F
notes: as for B1
B4: X2 (antibody, V domains shown)
VH: B1 VH with T107P
VL: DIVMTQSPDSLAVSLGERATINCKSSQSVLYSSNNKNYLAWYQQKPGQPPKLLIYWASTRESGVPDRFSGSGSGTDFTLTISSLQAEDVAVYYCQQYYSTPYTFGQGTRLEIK
notes: as for B1

T6 sequence (chain, as listed by the source limits assumed): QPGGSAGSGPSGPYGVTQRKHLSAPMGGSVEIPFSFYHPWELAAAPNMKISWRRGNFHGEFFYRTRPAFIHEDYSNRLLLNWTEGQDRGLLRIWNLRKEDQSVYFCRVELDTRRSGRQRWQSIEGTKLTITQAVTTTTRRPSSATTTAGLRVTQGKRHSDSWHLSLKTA

One experiment deals with T1, cynomolgus PILRA on HEK293F cells (cynomolgus monkey, UniProt A0A7N9CRU1 20-292). The experiment in a line: cA Kd of Table 9; method not stated (Example 8: HEK293F overexpressing cells, FACS).
T1 sequence (A0A7N9CRU1 entry or part of it): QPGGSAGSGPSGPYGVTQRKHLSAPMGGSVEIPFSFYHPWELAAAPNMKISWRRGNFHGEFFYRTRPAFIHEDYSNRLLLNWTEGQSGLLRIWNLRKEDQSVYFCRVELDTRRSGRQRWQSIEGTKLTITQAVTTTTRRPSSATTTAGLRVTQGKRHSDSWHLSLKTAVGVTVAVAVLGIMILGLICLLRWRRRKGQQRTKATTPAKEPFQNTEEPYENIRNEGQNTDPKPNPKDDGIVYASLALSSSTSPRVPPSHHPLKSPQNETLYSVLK
The Kd is the constant that tells how readily two partners part at equilibrium. Take B1: the Kd came out at 5.3 nM.

For B2, the Kd is 2.3 nM.

Regarding B3, the Kd was found to be 0.2 nM.

For the molecule B4, the Kd amounted to 8.9 nM.

For another experiment, the target named is T2, human PILRB on HEK293F cells (human, UniProt Q9UKJ0 20-227).
T2 construct: also called hB
T2 sequence (Q9UKJ0 20-227): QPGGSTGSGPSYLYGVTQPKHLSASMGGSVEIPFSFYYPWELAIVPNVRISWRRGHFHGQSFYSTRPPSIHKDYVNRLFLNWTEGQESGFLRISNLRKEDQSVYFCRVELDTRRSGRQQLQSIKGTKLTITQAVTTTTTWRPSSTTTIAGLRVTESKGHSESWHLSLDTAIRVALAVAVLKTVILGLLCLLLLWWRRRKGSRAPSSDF
In words: hB Kd of Table 9; method not stated (Example 8: HEK293F overexpressing cells, FACS).
For B1, the Kd came out at 126 nM.

For B3, the Kd came out at 3.4 nM.

B4 registered a Kd of 216 nM.

The target of another experiment is T3, cell surface PILRA on human monocytes (human, UniProt Q9UKJ1 20-303). The experiment in a line: cell-based or functional assay.
T3 sequence (Q9UKJ1 20-303): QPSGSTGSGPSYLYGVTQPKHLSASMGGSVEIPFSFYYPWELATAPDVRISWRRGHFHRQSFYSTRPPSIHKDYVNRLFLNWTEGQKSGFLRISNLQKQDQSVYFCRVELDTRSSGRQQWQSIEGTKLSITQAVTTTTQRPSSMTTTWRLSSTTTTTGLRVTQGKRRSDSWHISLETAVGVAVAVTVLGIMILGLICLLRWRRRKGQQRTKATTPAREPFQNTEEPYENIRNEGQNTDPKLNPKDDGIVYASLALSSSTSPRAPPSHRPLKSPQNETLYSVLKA
On to B1, for which the “Hu Mono DR EC50” value came out at 0.02 mg/L.

Regarding B2, the “Hu Mono DR EC50” value was found to be 0.3 mg/L.

Take B3: the “Hu Mono DR EC50” value is about 0.02 mg/L.

With B4, the “Hu Mono DR EC50” value stood at 0.1 mg/L.

For another experiment, the target named is T4, recombinant human PILRB (human, UniProt Q9UKJ0 20-191). In words: SPR, Carterra LSA, steady-state fit. As for the experimental part: (§1) Binding kinetics of human anti-PILRA-IgG4 antibodies were evaluated by surface plasmon resonance (SPR) using a Carterra LSA instrument (Carterra, Salt Lake City, UT). Antibodies were immobilized in duplicate arrays onto an HC30M sensor chip (Carterra) by amine coupling according to the manufacturer's protocol. After priming the immobilized antibodies with HBS-EP+ (Teknova, Hollister, CA, #8022) running buffer with 0.5 mg/mL BSA (MP Biomedicals LLC, #820451), the immobilized antibodies were tested for their ability to bind to recombinant human PILRA (SEQ ID NO:1) and cynomolgus PILRA (SEQ ID NO:120) and to human PILRB (SEQ ID NO:105) and cynomolgus PILRB (SEQ ID NO:121).
T4 sequence (Q9UKJ0 20-191 limits assumed): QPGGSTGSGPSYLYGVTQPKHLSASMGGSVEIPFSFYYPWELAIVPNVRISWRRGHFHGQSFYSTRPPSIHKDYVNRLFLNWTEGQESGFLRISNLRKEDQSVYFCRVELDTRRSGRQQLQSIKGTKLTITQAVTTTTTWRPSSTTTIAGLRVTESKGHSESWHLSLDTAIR
(§2) For binding kinetics analysis, human and cynomolgus PILRA and PILRB analytes were diluted in running buffer to 440 to 470 nM, and diluted 3-fold serially five times, to 1.8 to 1.9 nM, and injected for five minutes over the entire chip using the single channel flow cell to measure association of binding to the immobilized antibodies. Dissociation of the analytes was measured for five minutes, followed by regeneration of the chip with two 30-second injections of 10 mM glycine pH 2.0.
For the human PILRB interactions, the binding was too weak and heterogenous for kinetic constants to be calculated in this assay. Therefore, steady-state affinities were estimated based on the binding level of each analyte concentration at the end of the injections.
In general terms: Surface plasmon resonance follows binding to a sensor surface in real time, without labels.
For the molecule B1, the dissociation constant (Kd) was 39 nM.

With B2, the Kd is 80 nM.

As to B3, the Kd is 4 nM.

For B4, the Kd was found to be 53 nM.

For another experiment, the target named is T5, human PILRA G78 on HEK293F cells (human, UniProt Q9UKJ1 20-303).
T5 construct: also called hA; G78 OE
T5 sequence (Q9UKJ1 20-303 R78G): as the sequence (Q9UKJ1 20-303) above, with R59G counted along it
In words: hA Kd of Table 9; method not stated (Example 8: HEK293F overexpressing cells, FACS).
B1 registered a Kd of 0.4 nM.

B2 had a Kd of 1.6 nM.

In the case of B3, the Kd was found to be 0.1 nM.

B4 had a Kd of 0.8 nM.

The next experiment addresses T3, cell surface PILRA on human monocytes. In words: flow cytometry; Alexa Fluor 647-conjugated antibody on human CD14+ monocytes (second donor sample), Fc receptors blocked, 30 min on ice. As for the experimental part: (§3) Anti-human PILRA antibodies X0 (PA-29) and its affinity matured variants were tested for their abilities to bind cell surface PILRA on human and cynomolgus monocytes. CD14+ monocytes were isolated from healthy human donors using a RosetteSep Human Monocyte Enrichment Cocktail kit (StemCell). Cynomolgus white blood cells were collected from cynomolgus whole blood. In both human and cynomolgus samples, the Fc receptor on the tested monocytes was blocked and the monocytes were treated with Alexa Fluor 647-conjugated PILRA antibodies for 30 minutes on ice. A dose response curve of antibodies X0 (PA-29), X1, X2, X7, X11, X12, X13, X14, X16, X18, and X20 was tested for binding to cell surface PILRA in human and cynomolgus monocytes, and antibodies bound to PILRA in a dose response manner. In another sample of human donor monocytes, a dose response curve of antibodies X0 (PA-29), X1, X2, X11, X13, X18, X29 (PA-43), and X34 (A6) was tested for binding to cell surface PILRA in human and cynomolgus monocytes, and antibodies bound to PILRA in a dose response manner.
In general terms: A flow cytometer gives signals particle by particle.
Usually EC50 (read off the curve) stands for the concentration at which the effect is half-maximal. Read a high EC50 (read off the curve) as a less potent agent. Regarding B1, the “EC50 (read off the curve)” value was about 0.1 mg/L.

Consider B2, for which the “EC50 (read off the curve)” value was about 0.1 mg/L.

As to B3, the 50% effective concentration (EC50 (read off the curve)) was about 0.1 mg/L.

For the molecule B4, the “EC50 (read off the curve)” value is about 0.1 mg/L.

A further experiment concerns the target T5, human PILRA G78 on HEK293F cells. In words: FACS on HEK293F cells, binding on human PILRA (hA) over human PILRB (hB). As to the method:
(§4) Conditioned media samples containing the tested anti-PILRA antibodies were assessed for binding to HEK293F cells overexpressing human PILRA (hA), human PILRB (hB), and cynomolgus PILRA (cA) by FACS. The conditioned media containing the tested antibodies were incubated with the cells for 30 min at 4° C., washed twice, and then detected with goat anti-human IgG secondary antibody (Alexa Fluor 647) at 1:1000 dilution. The cells were analyzed by flow cytometry on FACS Canto II, and for all cell lines, the reported MFI values were calculated for each conditioned media. These antibodies were evaluated for nonspecific binding using a baculovirus particle (BVP) assay (Jain T., Sun T., Durand S., Hall A., Houston N. R., Nett J. H., Sharkey B., Bobrowicz B., Caffry L, Yu Y., et al. Biophysical properties of the clinical-stage antibody landscape. Proc. Natl. Acad. Sci. USA. 2017; 114:944-949. Doi: 10.1073/pnas.1616408114.). The BVP scores are listed in Table 9, and the higher the score the more nonspecific binding that occurred.
Take B1: the “hA/hB binding ratio on HEK293F” value was found to be 56.7.

With B2, the “hA/hB binding ratio on HEK293F” value is 79.8.

On to B3, for which the “hA/hB binding ratio on HEK293F” value came to 6.5.

In the case of B4, the “hA/hB binding ratio on HEK293F” value was 71.1.

The next experiment has as its target T6, recombinant cynomolgus PILRA (SEQ ID NO:120) (cynomolgus monkey).
T6 construct: also called cyno PILRA
In words: SPR, Carterra LSA, antibody amine-coupled, kinetic fit. As for the experimental part: as §1, §2
Regarding B1, the Kd came out at 1.6 nM.

For the molecule B2, the Kd came to 0.3 nM.

Turning to B3, the Kd was 0.2 nM.

With B4, the dissociation constant (Kd) turned out to be 1.5 nM.

The next experiment deals with T7, recombinant human PILRA (human, UniProt Q9UKJ1 20-197). The experiment is described as above. As for the experimental part: as §1, §2
T7 sequence (Q9UKJ1 20-197 limits assumed): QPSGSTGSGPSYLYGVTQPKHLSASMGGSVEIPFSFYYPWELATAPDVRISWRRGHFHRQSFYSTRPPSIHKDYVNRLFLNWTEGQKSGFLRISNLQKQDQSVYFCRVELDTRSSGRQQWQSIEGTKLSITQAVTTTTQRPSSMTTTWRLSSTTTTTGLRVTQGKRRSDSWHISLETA
B1: the Kd came out at 2.5 nM.

Regarding B2, the dissociation constant (Kd) amounted to 4.8 nM.

With B3, the Kd stood at 1.3 nM.

Consider B4, for which the Kd was 3.5 nM.

The target in the next experiment is T4, recombinant human PILRB. In words: SPR, Biacore T200, antibody captured by anti-Fab. As to the method:
(§5) A subset of these antibodies was further evaluated using the Biacore T200 (Cytiva). Anti-PILRA antibodies were diluted to 10 μg/mL and captured using an anti-Fab (Cytiva, #28958325) surface on a CM4 chip, that was prepared by amine coupling according to the manufacturer's protocol. Human PILRA and cynomolgus PILRB were diluted in running buffer to 130 nM, and diluted 4-fold serially, twice, to 8 nM. Human PILRB was similarly diluted from 260 nM to 16 nM. These analytes were injected and allowed 2 minutes of association, followed by dissociation for 5 minutes.
(§6) Data were analyzed using Biacore evaluation software to generate kinetic constants. The equilibrium dissociation constants (KD) were calculated from the fitted association and dissociation rate constants (k-on and k-off) for each of the anti-PILRA antibodies. These Kn values are indicated with asterisks in Table 8 below.
As to B1, the dissociation constant Kd was determined as 128 nM.

In the case of B2, the dissociation constant Kd was 142 nM.

For B4, the Kd is 157 nM.

The next experiment addresses T7, recombinant human PILRA. The experiment in a line: SPR, Biacore T200, antibody captured by anti-Fab. As to the method: as §5, §6
As for B1, the Kd came to 1.6 nM.

Consider B2, for which the Kd was 3.4 nM.

Consider B4, for which the Kd stood at 3.1 nM.

In the next experiment the target is T5, human PILRA G78 on HEK293F cells. The experiment in a line: flow cytometry; HEK293F cells overexpressing human PILRA, goat anti-human IgG Alexa Fluor 647. As to the method: as §4
Take B1: the “EC50 (read off the curve)” value is about 0.3 mg/L.

Regarding B2, the “EC50 (read off the curve)” value was about 0.3 mg/L.

B3: the “EC50 (read off the curve)” value was about 0.5 mg/L.

In the next experiment the target is T3, cell surface PILRA on human monocytes. The experiment in a line: flow cytometry; Alexa Fluor 647-conjugated antibody on human CD14+ monocytes, Fc receptors blocked, 30 min on ice. As to the method:
as §3
B1: the “EC50 (read off the curve)” value is about 0.2 mg/L.

As for B2, the “EC50 (read off the curve)” value is about 0.2 mg/L.

The next experiment concerns the target T1, cynomolgus PILRA on HEK293F cells. The experiment in a line: flow cytometry; HEK293F cells overexpressing cynomolgus PILRA, goat anti-human IgG Alexa Fluor 647.
In the case of B2, the “EC50 (read off the curve)” value was about 0.5 mg/L.

B4: the “EC50 (read off the curve)” value was about 0.6 mg/L.

Another experiment addresses T5, human PILRA G78 on HEK293F cells. In words: flow cytometry blocking assay; antibody on HEK293F cells overexpressing human PILRA G78, then 5 ug/mL NPDC1 Fc as the blocked ligand; cell-bound NPDC1 Fc read as MFI. As to the method:
A dose response curve of antibodies X0 (PA-29), X1, X2, X7, X11, X12, X13, X14, X16, X18, and X20 was assessed for modulating the binding of Neural Proliferation Differentiation and Control Protein 1 (NPDC1) Fc to 293 cells ectopically expressing human PILRA (HEK293F human PILRA G78 overexpressing cells). Conditioned media samples containing antibodies were incubated with human PILRA overexpressing cells for 30 minutes at 4° C., and then 5 μg/mL NPDC1 Fc was added to this mixture. After 30 minutes of incubation at 4° C., the cells were washed and cell-bound NPDC1 Fc was detected with anti-human IgG Alexa Fluor 647. The cells were analyzed by flow cytometry on FACS Canto II with the percentage of NPDC1 Fc binding in the presence of conditioned media relative to NPDC1 Fc binding alone was calculated. […] All tested antibodies decreased binding of NPDC1 to human PILRA.
On to B1, for which the “IC50 (read off the curve)” value was about 0.07 mg/L.
